As usually defined, the stoichiometry N is a count of units in the complex or per binding partner.

Experiment [1] has as its target S16L/R18S/N21K (LSK) crosslinked (disulfide-stabilised) HIV-1 CA hexamer (HIV-1). Nature of the experiment: crystal structure; crosslinked CA hexamer 12 mg/ml mixed with 1-5 mM IP6; sitting-drop vapour diffusion, 17 °C, MORPHEUS I screen.
In experiment [2] the target is S16N/R18S/N21K (NSK) crosslinked (disulfide-stabilised) HIV-1 CA hexamer (HIV-1). The experiment is described as above.

Substance “S16L/R18S/N21K (LSK) crosslinked (disulfide-stabilised) HIV-1 CA hexamer (complex)” had a stoichiometry N in experiment [1] of 6.

In turn, “S16N/R18S/N21K (NSK) crosslinked (disulfide-stabilised) HIV-1 CA hexamer (complex)” had a stoichiometry N in experiment [2] of 6.

The values above are taken from publication doi:10.1101/2025.05.19.654868.
